The term kcat denotes the maximal rate divided by the concentration of active sites. For orientation: Km means the substrate concentration at which the rate is half of its maximum. By kcat/Km is commonly meant the turnover number divided by the Michaelis constant.

The target of series [1] is Staphylococcus epidermidis strain 9 lipase variant H648K (His-648 to Lys), SEQ ID NO:16 (Staphylococcus epidermidis, UniProt P0C0R3, H648K). As to the kind of experiment: Kinetic analysis of hydrolysis of p-nitrophenyl butyrate (p-nitrophenol formation), mutant H648K. It is filed as biochemical. The note with it: H648K vs wild-type, substrate p-nitrophenyl butyrate. How it is done:
(§1) The purified enzymes and substrate p-nitrophenyl butyrate (2.64 mM predissolved in 2.1% Triton X-100) were mixed in 50 mM phosphate buffer (pH 6.0). The reactions were carried out at 37° C. for 15 min and were terminated by the addition of acetone (1:1, v/v) (Kazlauskas 1994). The absorption values of the reaction product (p-nitrophenol) at 346 nm were determined, and the hydrolase activity (a general indicator for the lipolytic activity) of the purified enzymes was obtained, after converting the absorption values into mmols of p-nitrophenol quantity (at pH 6.0) curve. The molar extinction coefficient of p-nitrophenol under this condition was 2988[…].

For series [2], the target named is Staphylococcus epidermidis strain 9 lipase, wild-type (recombinant 43 kDa "Lys-303" lipase, C-terminal His-tag), SEQ ID NO:14 (Staphylococcus epidermidis, UniProt P0C0R3). The series can be described thus: Kinetic analysis of hydrolysis of p-nitrophenyl butyrate (p-nitrophenol formation), wild-type lipase. It is filed as biochemical. The conditions noted are these: substrate p-nitrophenyl butyrate, 50 mM phosphate buffer (pH 6.0), 37° C., means ± standard error, three experiments.
Staphylococcus epidermidis strain 9 lipase, wild-type (recombinant 43 kDa "Lys-303" lipase, C-terminal His-tag), SEQ ID NO:14, sequence (P0C0R3 303-688): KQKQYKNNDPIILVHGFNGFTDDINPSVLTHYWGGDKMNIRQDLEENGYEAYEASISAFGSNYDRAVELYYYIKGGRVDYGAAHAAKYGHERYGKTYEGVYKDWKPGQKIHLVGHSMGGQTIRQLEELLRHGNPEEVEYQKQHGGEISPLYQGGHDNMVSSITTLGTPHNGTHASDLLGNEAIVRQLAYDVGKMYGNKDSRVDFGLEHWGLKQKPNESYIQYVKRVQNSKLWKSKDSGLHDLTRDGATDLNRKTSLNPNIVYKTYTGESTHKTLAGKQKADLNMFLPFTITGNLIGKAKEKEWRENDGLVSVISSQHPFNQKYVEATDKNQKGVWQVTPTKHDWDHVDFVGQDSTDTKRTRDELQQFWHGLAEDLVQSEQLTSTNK
From the text: (§2) A fragment of the gehC gene (designated “Lys-303” gene), which encoded an amino acid sequence corresponding to that of the S. epidermidis lipase following proteolytic cleavage between Ala-302 and Lys-303, was synthesized by polymerase chain reaction (PCR) using a chromosomal DNA from a S. epidermidis isolated from a patient in Chang-Gung Hospital (Keelung, Taiwan) as template. The gehC gene is a Staphylococcus epidermidis strain 9 lipase gene. The gene consisted of a single open reading frame of 2064 nucleotides, which encoded a protein of 688 amino acids with a predicted molecular mass of 77 kDa. The Lys-303 gene (SEQ ID NO:13) encoded an active lipase (SEQ ID NO:14), which was about 43 kDa in molecular weight. The Lys-303-encoded lipase is also known as the “43 kDa” or “wild-type” lipase. Two primers: an N-terminal primer of SEQ ID NO:1 (5′-[…]-3′) and a C-terminal primer of SEQ ID NO:2 (5′-[…]-3′) were used in this synthetic process.
as §1
(§3) The mutation apparently affected the enzyme's ability to stabilize the transition state more than it affected the substrate binding ability of the enzyme. […] The kcat/Km ratio is the pertinent parameter to determine kinetic efficiency of an enzyme.

In series [3] the target is Staphylococcus epidermidis strain 9 lipase variant V649I (Val-649 to Ile), SEQ ID NO:17 (Staphylococcus epidermidis, UniProt P0C0R3, V649I). The series can be described thus: Kinetic analysis of hydrolysis of p-nitrophenyl butyrate (p-nitrophenol formation), mutant V649I. The note with it: V649I vs wild-type; substrate p-nitrophenyl butyrate. It counts as biochemical.
Staphylococcus epidermidis strain 9 lipase variant V649I (Val-649 to Ile), SEQ ID NO:17, sequence (P0C0R3 303-688 V649I): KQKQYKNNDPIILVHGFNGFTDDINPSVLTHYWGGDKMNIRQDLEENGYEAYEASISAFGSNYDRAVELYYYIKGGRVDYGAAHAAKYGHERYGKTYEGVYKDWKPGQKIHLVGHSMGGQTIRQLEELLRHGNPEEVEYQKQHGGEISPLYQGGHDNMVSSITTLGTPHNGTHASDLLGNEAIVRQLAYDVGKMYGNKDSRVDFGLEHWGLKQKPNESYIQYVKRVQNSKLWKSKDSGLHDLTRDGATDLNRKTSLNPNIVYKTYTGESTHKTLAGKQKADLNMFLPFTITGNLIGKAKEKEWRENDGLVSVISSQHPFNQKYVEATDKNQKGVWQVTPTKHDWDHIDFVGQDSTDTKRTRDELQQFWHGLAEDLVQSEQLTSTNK
From the text: (§4) The mutant-type lipase is preferably obtained from site-directed mutagenesis of a lipase isolated from Staphylococcus, most favorably Staphylococcus epidermidis. The mutant lipase from Stapylococcus epidermidis that has an alanine residue replacing the methionine residue which immediately follows the serine residue of the Ser-His-Asp catalytic triad has the amino acid sequence of SEQ ID NO: 15. The mutant lipase from Stapylococcus epidermidis that has an isoleucine residue replacing the valine residue which immediately follows the histidine residue of the Ser-His-Asp catalytic triad has the amino acid sequence of SEQ ID NO: 17.
as §1

For series [4], the target named is Staphylococcus epidermidis strain 9 lipase variant M419A (Met-419 to Ala), SEQ ID NO:15 (Staphylococcus epidermidis, UniProt P0C0R3, M419A). As to the kind of experiment: Kinetic analysis of hydrolysis of p-nitrophenyl butyrate (p-nitrophenol formation), mutant M419A. The conditions noted are these: M419A vs wild-type; substrate p-nitrophenyl butyrate. It is filed as biochemical.
Staphylococcus epidermidis strain 9 lipase variant M419A (Met-419 to Ala), SEQ ID NO:15, sequence (P0C0R3 303-688 M419A): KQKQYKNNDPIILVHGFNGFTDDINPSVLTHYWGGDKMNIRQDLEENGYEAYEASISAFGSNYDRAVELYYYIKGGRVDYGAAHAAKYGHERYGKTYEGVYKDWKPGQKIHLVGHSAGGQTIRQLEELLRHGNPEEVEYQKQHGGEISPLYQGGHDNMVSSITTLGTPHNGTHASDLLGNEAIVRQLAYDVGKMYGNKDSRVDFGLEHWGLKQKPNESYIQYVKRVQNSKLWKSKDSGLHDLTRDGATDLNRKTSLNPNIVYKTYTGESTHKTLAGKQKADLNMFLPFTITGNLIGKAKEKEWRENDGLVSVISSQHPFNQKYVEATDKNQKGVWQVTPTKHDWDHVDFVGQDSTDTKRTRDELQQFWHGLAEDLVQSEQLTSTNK
From the text: as §4, §1, §3

A further series has as its system S. hyicus lipase. The conditions noted are these: Chang et al. (1996); cited from earlier work.
In series [5] the test system is CCCC(=O)Oc1ccc([N+](=O)[O-])cc1. As to the kind of experiment: Kinetic analysis of hydrolysis of p-nitrophenyl butyrate (p-nitrophenol formation), mutant H648K. The conditions noted are these: other: H648K, substrate p-nitrophenyl butyrate, 50 mM phosphate buffer (pH 6.0), 37° C., means ± standard error, three experiments. It is filed as biochemical, Staphylococcus epidermidis. As for the experimental part: as §1

For series [6] the test system is unchanged. As to the kind of experiment: Kinetic analysis of hydrolysis of p-nitrophenyl butyrate (p-nitrophenol formation), mutant M419A. It counts as biochemical, Staphylococcus epidermidis. The conditions noted are these: other: M419A, substrate p-nitrophenyl butyrate, 50 mM phosphate buffer (pH 6.0), 37° C., means ± standard error, three experiments.
From the text: as §4, §1, §3

For series [7] the test system is unchanged. As to the kind of experiment: Kinetic analysis of hydrolysis of p-nitrophenyl butyrate (p-nitrophenol formation), mutant V649I. It counts as biochemical, Staphylococcus epidermidis. The conditions noted are these: other: V649I, substrate p-nitrophenyl butyrate, 50 mM phosphate buffer (pH 6.0), 37° C., means ± standard error, three experiments.
From the text: as §4, §1

Series [8] has the same test system. The series can be described thus: Kinetic analysis of hydrolysis of p-nitrophenyl butyrate (p-nitrophenol formation), wild-type lipase. It is filed as biochemical, Staphylococcus epidermidis. The conditions noted are these: other: wild-type, substrate p-nitrophenyl butyrate, 50 mM phosphate buffer (pH 6.0), 37° C., means ± standard error, three experiments.
From the text: as §2, §1, §3

Staphylococcus epidermidis strain 9 lipase variant H648K (His-648 to Lys), SEQ ID NO:16, sequence (P0C0R3 303-688 H648K): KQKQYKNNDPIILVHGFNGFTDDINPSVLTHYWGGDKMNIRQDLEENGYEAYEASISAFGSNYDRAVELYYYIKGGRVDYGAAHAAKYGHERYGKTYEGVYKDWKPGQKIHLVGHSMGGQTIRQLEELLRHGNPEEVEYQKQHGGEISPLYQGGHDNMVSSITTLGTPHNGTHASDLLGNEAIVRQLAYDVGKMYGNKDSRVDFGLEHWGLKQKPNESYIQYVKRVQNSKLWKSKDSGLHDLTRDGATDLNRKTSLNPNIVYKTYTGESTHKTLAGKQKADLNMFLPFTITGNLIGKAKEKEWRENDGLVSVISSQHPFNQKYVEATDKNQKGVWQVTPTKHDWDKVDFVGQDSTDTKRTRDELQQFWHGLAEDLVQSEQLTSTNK

As to `CCCC(=O)Oc1ccc([N+](=O)[O-])cc1` [p-nitrophenyl butyrate], in series [1], the “kcat compared with the wild-type enzyme (decreased to)” value was found to be 10.4%. In addition, in series [1] (in words), the “change in the Km compared with the wild-type enzyme” value is listed as “little change”. Further, in [2], the kcat is 25.1 s⁻¹. Moreover, in series [3], the “increase in kcat in comparison with the wild-type enzyme” value turned out to be 13.4 fold and the “increase in the kcat/Km in comparison with the wild-type enzyme” value worked out at 4.0 fold. Moreover, in [4], the “increase in catalytic efficiency (kcat/Km) in comparison with the wild-type enzyme” value stood at 2.0 fold. In the series with S. hyicus lipase, the Michaelis constant (Km) is 2.07 mM, the kcat is 0.53 s⁻¹ and the kcat/Km was 0.257 s⁻¹ mM⁻¹.

As for “Staphylococcus epidermidis strain 9 lipase variant H648K (His-648 to Lys), SEQ ID NO:16 (Staphylococcus epidermidis; H648K)”, in series [5], the Km is reported as 0.95 ± 0.35 mM, the kcat is 2.6 ± 0.9 s⁻¹ and the kcat/Km is 2700 M⁻¹ s⁻¹.

With “Staphylococcus epidermidis strain 9 lipase variant M419A (Met-419 to Ala), SEQ ID NO:15 (Staphylococcus epidermidis; M419A)”, in [6], the Km was 3.97 ± 0.12 mM, the kcat worked out at 218 ± 14 s⁻¹ and the kcat/Km stood at 54800 M⁻¹ s⁻¹.

On to “Staphylococcus epidermidis strain 9 lipase variant V649I (Val-649 to Ile), SEQ ID NO:17 (Staphylococcus epidermidis; V649I)”, for which, in [7], the Km worked out at 3.02 ± 0.21 mM, the catalytic constant (kcat) stood at 336 ± 15.7 s⁻¹ and the kcat/Km turned out to be 111000 M⁻¹ s⁻¹.

As to “Staphylococcus epidermidis strain 9 lipase, wild-type (recombinant 43 kDa "Lys-303" lipase, C-terminal His-tag), SEQ ID NO:14 (Staphylococcus epidermidis)”, in series [8], the Km was 0.90 ± 0.08 mM, the kcat was determined as 25.1 ± 0.6 s⁻¹ and the kcat/Km was 27900 M⁻¹ s⁻¹.

(Values after patent publication US7049122B2, “Mutant-type lipases and applications thereof” (priority 2001, dated 2006).)
